Results reported in the supplement of paper PMC10724198.
± gives the standard deviation of the averaged measurements.

Test system: Saccharomyces cerevisiae
Assay: protein stability index of tFT-peptide fusion (C-terminal peptide) (PSI (0-1 scale)); higher = more stable (slower turnover)
Details: genetic background: wild type; temperature: 30 C
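Note: PSI is a weighted mean of sequencing reads over stability bins, variants kept only with over 10 reads, mCherry proximal and sfGFP distal, peptide attached via GGGS linker.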

Sequence	protein stability index
VGGVAGSFIFSC	0.759 ± 0.15
VGGVGGGRAWWR	0.685 ± 0.055
VGKGALHCLPDL	0.713 ± 0.0015
VGKYVVTKNGGC	0.694 ± 0.043
VGPLIGQVGIDT	0.748 ± 0.014
VGPLYFPWSLNF	0.692 ± 0.053
VGPVDPGDSDGL	0.699 ± 0.0065
VGQPWRLHFILR	0.648 ± 0.0062
VGQVGAGAVPVG	0.677 ± 0.037
VGRESVVGEQFV	0.625 ± 0.025
VGRVGVRDGVVG	0.613 ± 0.032
VGRVGVREGVVG	0.638 ± 0.067
VGSGGGAPRVGR	0.647 ± 0.072
VGSGGGKGLCRQ	0.674 ± 0.048
VGSRGWGRWGVA	0.693 ± 0.047
VGSWVEVWGVIG	0.687 ± 0.041
VGTFGAGGYAPD	0.646 ± 0.078
VGTQIGLWVAQV	0.591 ± 0.041
VGTRGARREVQT	0.734 ± 0.07
VGVGGRRYNVRG	0.66 ± 0.013
VGVGGVGRRAKI	0.687 ± 0.075
VGVGNRRWGGGV	0.679 ± 0.014
VGVGRRGGVGEG	0.654 ± 0.029
VGVRCVGVLFGV	0.637 ± 0.0072
VGVRRAGGARGW	0.634 ± 0.088
VGVSGEGFSWGG	0.674 ± 0.019

Sequence	protein stability index
VGVSGEGFSWVG	0.675 ± 0.021
VGVWRGWDVDCH	0.776 ± 0.061
VGWCTGWFVGLV	0.6652 ± 0.0063
VGWGGGVEEVKG	0.712 ± 0.017
VHFECFLVPFLL	0.525 ± 0.028
VHGRAPTSRSGT	0.72 ± 0.043
VHRRRVSVGGGG	0.69 ± 0.0092
VHWRDARFLRGM	0.658 ± 0.045
VHWVVFSVPRQA	0.73 ± 0.033
VIGRRRLQDWII	0.736 ± 0.081
VIRGVVPVVRSV	0.668 ± 0.037
VIRRLSNPCILR	0.663 ± 0.067
VITGGFVVGCCG	0.623 ± 0.018
VIYIEYIGRNFI	0.631 ± 0.027
VKEHRPQRNPSH	0.675 ± 0.016
VKEKKKDEKRKR	0.747 ± 0.072
VKENLCLLWVYR	0.562 ± 0.013
VKEVSVIKNHQG	0.454 ± 0.11
VKTIRVTKSVGD	0.6941 ± 0.0057
VKYPALMITGFW	0.669 ± 0.015
VLALPSSPLLPS	0.643 ± 0.1
VLARPQAKAPLG	0.571
VLGGSMWLDLVC	0.781 ± 0.23
VLGPFKKSIQVL	0.522 ± 0.02
VLGRLRVGRDRV	0.7521 ± 0.0019
VLGSSSKLGSLS	0.647 ± 0.025

Sequence	protein stability index
VLGVVGNYFESA	0.668 ± 0.078
VLGWCLCGRTCG	0.6579 ± 0.0013
VLHGGKLFGFVR	0.676 ± 0.017
VLIFSSFRSLVF	0.562 ± 0.081
VLLAGPIPSALP	0.662 ± 0.0079
VLLGCRRAWVGF	0.669 ± 0.018
VLLHFRSFAPPV	0.613 ± 0.008
VLLYAPLLPPLA	0.622 ± 0.018
VLPRPLPALPPL	0.683 ± 0.028
VLRDLGVSLSRA	0.785 ± 0.025
VLRHRGEGGPGA	0.67 ± 0.035
VLSAPPGLLSYT	0.623 ± 0.053
VLSGLPPGFTLV	0.644 ± 0.012
VLSSASRGSRCL	0.707 ± 0.17
VLSSSTLFFLVF	0.584 ± 0.024
VLTFVWLVGQGF	0.581 ± 0.048
VLVFPVVYWILR	0.543 ± 0.038
VNLSNLRPCPTR	0.707 ± 0.065
VPASVRRSAPVP	0.664 ± 0.044
VPAVGGFLMFIG	0.638 ± 0.0094
VPCSIQWNLDEL	0.673 ± 0.055
VPDDGVLLSVLE	0.7182 ± 0.0017
VPFFLSNSSHIK	0.679 ± 0.051
VPFQEGHVKRFL	0.665 ± 0.019
VPGRSPTKSTVS	0.66808 ± 0.00013
VPGWRVGGARSV	0.746 ± 0.048

Sequence	protein stability index
VPLFLVPGLSAV	0.602 ± 0.0083
VPLGFPPPPLDP	0.727 ± 0.038
VPLRGPAPPRPR	0.739 ± 0.035
VPLRPFFPTLFP	0.712 ± 0.063
VPLSPVSSGAPD	0.66 ± 0.04
VPPHLLAPDPRL	0.7158 ± 0.0066
VPPLRPVAPCRG	0.533 ± 0.014
VPPLVSSSSLLL	0.636 ± 0.082
VPPPLRLWPLPV	0.618 ± 0.076
VPPPPPRLKRFA	0.639 ± 0.035
VPPPRLPQPLFP	0.717 ± 0.052
VPRCLPVGLLFF	0.71 ± 0.19
VPRPFILTATSE	0.675 ± 0.084
VPRRSLLSPPPP	0.668 ± 0.023
VQGSRKGSRERW	0.683 ± 0.065
VQLHIDVRSFLF	0.67 ± 0.014
VQTIKPVPSGLR	0.622 ± 0.078
VQVRPVVTVPSK	0.7 ± 0.068
VQWTEFYWVRKG	0.575 ± 0.037
VRALGRDGIRQC	0.602 ± 0.015
VRCCFGGRGGIA	0.653 ± 0.0079
VRCGGPGRAGKG	0.63 ± 0.052
VRDRVLFVARGG	0.6996 ± 0.00075
VRFVVRSVSSFV	0.5973 ± 0.0014
VRFVVRVFQCSF	0.466 ± 0.052
VRGFFTLSGNLI	0.716 ± 0.072

Sequence	protein stability index
VRGKGWRGGWWG	0.682 ± 0.031
VRGLGRLSRAEV	0.77 ± 0.014
VRGRGRQDVDGG	0.699 ± 0.11
VRGRGVYRIDKV	0.716 ± 0.018
VRLIGVSVGALE	0.579 ± 0.068
VRLLAESWEGGR	0.702 ± 0.017
VRPEPSTGARGA	0.669 ± 0.049
VRPFTLLSSYSV	0.644 ± 0.028
VRPREWMIPFEC	0.709 ± 0.012
VRRRRVPSEATR	0.667 ± 0.044
VRSDHSGLEILG	0.782 ± 0.11
VRVECGVWGSVS	0.65806 ± 0.00012
VRVEGQCWMGRI	0.679 ± 0.017
VRVGRGGKELND	0.576 ± 0.11
VRVKRAGGGGVG	0.591 ± 0.028
VRVVGVSGGEGG	0.644 ± 0.027
VRVVPPQPELSP	0.648 ± 0.051
VRVYLSQNSRFG	0.723 ± 0.066
VRWGLLLSCLRS	0.666 ± 0.03
VRWSEVGMGVWR	0.708 ± 0.014
VSAFLPLFLLTP	0.601 ± 0.055
VSCNRGAYVRSR	0.6776 ± 0.0053
VSFAGSPVPSSS	0.716 ± 0.0095
VSFCDVEVRFFV	0.619 ± 0.066
VSFWSVFSWLSG	0.665 ± 0.014
VSGCPVVFRSYC	0.693 ± 0.024

Sequence	protein stability index
VSGDRFKRHESV	0.695 ± 0.027
VSGFVILDSTCP	0.671 ± 0.025
VSIMRLGSCRQD	0.702 ± 0.033
VSLLCFCFGCVL	0.604 ± 0.022
VSLPMAPPPLDG	0.616 ± 0.013
VSLVVGTGEWGA	0.762 ± 0.17
VSLYRRFLGVYS	0.532 ± 0.011
VSPGYWGPAPLC	0.682 ± 0.016
VSPPPRFPLLPS	0.669 ± 0.03
VSPRYRDRPGPS	0.692 ± 0.015
VSPSPLDHPFHV	0.684 ± 0.021
VSSVTFSLSFAL	0.813 ± 0.082
VSSWNALCVEGM	0.649 ± 0.0073
VSTRVAVESPLG	0.656 ± 0.03
VSVGRSSARVIG	0.725 ± 0.02
VSVSERVGNMLP	0.679 ± 0.035
VTCRALTFSLLG	0.635 ± 0.12
VTDTSCRAEVEQ	0.701 ± 0.059
VTEGVGGGKGRG	0.597 ± 0.056
VTFPSAHSSRRF	0.71635 ± 0.00041
VTIFAGIGQFWF	0.706 ± 0.021
VTKRSKKNPTNN	0.691 ± 0.018
VTREEALICSQP	0.811 ± 0.13
VTSVCGYVRIWW	0.71 ± 0.047
VTVLFFLGPSLL	0.575 ± 0.013
VVAAGGASDVGG	0.712 ± 0.056

Sequence	protein stability index
VVADNGASGWAW	0.7579 ± 0.0033
VVALLGPSGGWW	0.742 ± 0.018
VVASSRSAQRLP	0.7006 ± 0.0064
VVCRTSPVCLGK	0.672 ± 0.019
VVDGWVAAWGVW	0.694 ± 0.003
VVFGLESCDWRG	0.669 ± 0.0093
VVGHGLAGCKVG	0.668 ± 0.037
VVGRCVWRGMGG	0.688 ± 0.031
VVGRGGGFVGPG	0.616 ± 0.026
VVGRVGGFVGPG	0.677 ± 0.1
VVGRVTGGGSDG	0.646 ± 0.037
VVGRWGWACCRP	0.681 ± 0.071
VVHATITGPVRS	0.635 ± 0.019
VVKKDTHVKRKT	0.636 ± 0.027
VVLFHGLGFCHN	0.627 ± 0.072
VVLGGFAVGLGF	0.708 ± 0.021
VVLPLCRVPSHW	0.688 ± 0.05
VVLRRTLGAFLF	0.661 ± 0.059
VVREAKGHGGCR	0.667 ± 0.014
VVREARTLNGDM	0.671 ± 0.099
VVRLTALTNATV	0.671 ± 0.086
VVRLTNGLFSIL	0.662 ± 0.0094
VVSITYCGQGGG	0.694 ± 0.045
VVSLGLGPSLRV	0.709 ± 0.1
VVSQSPTLGSNY	0.655 ± 0.022
VVTSVLCGRVHL	0.682 ± 0.0069

Sequence	protein stability index
VVVAWGGGAVVG	0.684 ± 0.018
VVVGSITRLGLW	0.6908 ± 0.00074
VVVGVGGCVDMG	0.676 ± 0.014
VVVGWWALGRFL	0.629 ± 0.018
VVVRAGAIFAIP	0.62 ± 0.045
VVVSRARSSRSS	0.6332 ± 0.0021
VVWEGSEFVSLA	0.671 ± 0.039
VVWSGRWKGLRV	0.621 ± 0.12
VWAWGACPRGEG	0.6429 ± 0.0016
VWCAFNLLFARQ	0.574 ± 0.032
VWGIIQTDRMGR	0.744 ± 0.017
VWGRGWVVGWFL	0.612 ± 0.066
VWGRLGGGVGRA	0.719 ± 0.069
VWGRQGGGVGRA	0.715 ± 0.088
VWGVFGGCWCGV	0.693 ± 0.021
VWSWGDGGGAVV	0.734 ± 0.029
VWTATLRPPGHP	0.655 ± 0.068
VWVGGGRRDPKY	0.735 ± 0.075
VWVGGVSVGFFG	0.716 ± 0.061
VWVSRPWGRGGL	0.681 ± 0.038
